Data on one molecule can be found in patent US20110301073, “Novel DNA-binding proteins and uses thereof” (Sangamo BioSciences, Inc., published 2011).

In one series the target is T1, TALE13 +50 FokI (Xanthomonas axonopodis (engineered)).
T1 chain: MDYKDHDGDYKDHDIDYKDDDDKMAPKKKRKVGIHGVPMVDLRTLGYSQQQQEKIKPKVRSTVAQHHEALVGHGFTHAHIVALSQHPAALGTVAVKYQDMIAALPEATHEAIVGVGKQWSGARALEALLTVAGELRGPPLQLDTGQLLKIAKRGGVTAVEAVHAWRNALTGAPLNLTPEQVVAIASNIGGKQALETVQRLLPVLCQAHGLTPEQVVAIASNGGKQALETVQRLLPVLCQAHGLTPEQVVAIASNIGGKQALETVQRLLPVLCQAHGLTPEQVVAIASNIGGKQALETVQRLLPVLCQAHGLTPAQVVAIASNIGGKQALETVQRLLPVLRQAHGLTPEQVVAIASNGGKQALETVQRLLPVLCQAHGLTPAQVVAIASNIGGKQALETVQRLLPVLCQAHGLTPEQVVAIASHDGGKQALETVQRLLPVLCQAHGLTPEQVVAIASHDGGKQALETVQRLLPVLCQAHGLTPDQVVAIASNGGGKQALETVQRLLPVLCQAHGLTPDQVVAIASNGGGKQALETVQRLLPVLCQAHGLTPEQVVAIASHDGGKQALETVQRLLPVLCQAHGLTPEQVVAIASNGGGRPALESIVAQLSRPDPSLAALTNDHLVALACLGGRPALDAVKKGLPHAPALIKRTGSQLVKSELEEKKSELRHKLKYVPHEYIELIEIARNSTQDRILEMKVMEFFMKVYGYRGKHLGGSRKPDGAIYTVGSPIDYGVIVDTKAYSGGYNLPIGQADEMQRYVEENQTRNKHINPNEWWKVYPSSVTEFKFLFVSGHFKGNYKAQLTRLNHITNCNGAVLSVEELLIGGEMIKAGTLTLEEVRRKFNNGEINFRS
Briefly: cleavage_in_vitro; two inverted sites, 16 bp gap; NEB Buffer 2, 37 C. The following applies: tags: FLAG, NLS, chain copies: 2. As to the method:
TALE domain fusions were also constructed using Fold cleavage half domains. For these examples, wild type FokI half cleavage domains were used so that for nuclease activity, a homodimer must be formed from two of the fusions. For these fusions, the TALE13 DNA binding domain was fused to each FokI half domain by cloning the TALE DNA binding domain into a plasmid adjacent to FokI-specifying sequence. In addition, various linkers were tested for use between the DNA binding domain and the nuclease domain. Linkers L2 and L8 were used which are as follows: L2=GS (SEQ ID NO:71) and L8=[…] (SEQ ID NO:72). The target sites were cloned into a TOPO2.1 target vector (Invitrogen) with varying gap spacings between each target binding site such that the two were separated from each other by 2 to 22 bp. PCR amplification of an approximately 1 kb region of the target vector was done to generate the target DNAs. The TALE DNA binding domains were also truncated as described previously, and are described using the same nomenclature as described above in Examples 2 and 6. The TALE domain nuclease fusion clones were expressed in the TNT Rabbit Reticulocyte Lysate system by adding 5 μL of water containing 250 nanograms of the nuclease fusion clone plasmid to 20 μL of lysate and incubating at 30° C. for 90 minutes.
The lysate was then used to cleave the target DNAs as follows: 2.5 μL of lysate were added to a 50 μL reaction containing 50 nanograms of PCR-amplified target DNA and a final Buffer 2 (New England Biolabs) concentration of 1×. The cleavage reaction was for one hour at 37° C., followed by a 20 minute heat inactivation stage at 65° C. The reaction was then centrifuged at high speed to separate the target DNA from the lysate, causing the lysate to condense into a pellet in the reaction well. The DNA-containing supernatant was pipetted off and run on an ethidium bromide-stained agarose gel (Invitrogen) to separate intact target DNA from cleaved target DNA. The agarose gel was then analyzed using AlphaEaseFC (Alpha Innotech) software to measure the amount of target DNA present in the large uncleaved DNA band and the two smaller DNA bands resulting from a single cleavage event of the target DNA. The percentage of cleaved DNA out of the total amount of target DNA loaded into the gel represents the percent cleavage in each reaction.

The next series deals with TALE13 N+111 C+52 (Xanthomonas axonopodis). Kind of series: DNA-binding ELISA; background level. The source says:
(§1) When clones #3, 4 and 5 were subjected to the SELEX procedure, no consensus sequences were detected. Thus it appears that the TALE binding domains require N- and C-terminal cap sequences comprised in from clone #2 to yield a consensus sequence in this assay. Additional truncations were made and tested for activity using a DNA binding ELISA assay essentially as described in Bartsevich et al., Stem Cells. 2003; 21:632-7. The truncations are presented below in Table 7, which also includes the ELISA results. The starting N-terminus in these truncations is at amino acid 152, identical to the N-terminus in the #1, #2, and #3 truncations discussed above. In this fine-scale truncation series, the end points are as follows.

The next series addresses TALE13 N+121 C+52 (Xanthomonas axonopodis). Kind of series: DNA-binding ELISA; background level.
Excerpt: as §1

The target in another series is TALE13 N+100 C+115 (Xanthomonas axonopodis). Kind of series: DNA-binding ELISA; background level.
Excerpt: as §1

The next series addresses TALE13 N+91 C+115 (Xanthomonas axonopodis). Kind of series: DNA-binding ELISA; background level.
Excerpt: as §1

The next series has as its target TALE13 N+100 C+52 (Xanthomonas axonopodis). Kind of series: DNA-binding ELISA; background level.
Excerpt: as §1

Another series addresses TALE13 N+91 C+52 (Xanthomonas axonopodis). Kind of series: DNA-binding ELISA; background level.
Excerpt: as §1

B1: TALE13 target (dsDNA)
DNA 1: TATAAATACCTTCT
DNA 2: AGAAGGTATTTATA
In turn, B1 yielded an activity with TALE13 +50 FokI of 83 % cleavage. For the same molecule, the binding result in the series with TALE13 N+111 C+52, with TALE13 N+121 C+52, with TALE13 N+100 C+115, with TALE13 N+91 C+115, with TALE13 N+100 C+52 and with TALE13 N+91 C+52 was “no binding” in each case.
